Here are results for 69 sequences from the domain aggregation screens of Martell et al. (2025).

A short description of this data set: soluble fraction after stress (log2 fold change); higher = more stays soluble; pooled small domains, quantitative proteomics. The following applies: stress: 50 degC. The procedure, abridged: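 Custom libraries of small protein domains were pooled and measured in a high-throughput format, with quantitative proteomics as the read-out. Each library was stressed at 50°C. The value is the log2 fold change in the amount of each protein that stays soluble after stress, used as a measure of aggregation propensity; higher values mean more of the protein stays soluble.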
On to “HMLDKEDNANAGKTLLERELSRAHLSDVEHRELAQRLHLASEQELYIKIGSGDLSIIQALNRAKEFKDT”, for which the “soluble fraction (log2)” value was -0.0156.

With “HMEVDWLEVEKVIVSSSYSWMENSPKVKLLQEYIGVTADGIYGLGTWGAHRTHAVDLGFINLSYPIP”, the “soluble fraction (log2)” value is -0.127.

As for “HMNTAIPIAIDQLRIGMYIQLGLNWMSHPFPVSSFRIASESQIEILRGLGLAEVRYVPAKSDPVP”, the “soluble fraction (log2)” value was -2.88.

As for “HMDTGPSFATRRQEAFNALTQIAASNKEFMNVAGDVLWKVADFPEAQILAQRWRRIIPPNVLGEA”, the “soluble fraction (log2)” value was -0.193.

Regarding “HMNDLKVGELAKRGNVTAETVRHYTREGLLSPTRHPDNGYQLFSATDLERLHFIQRARKLGFSVAEIRDIL”, the “soluble fraction (log2)” value is -0.619.

For “HMYAVQKGDTLKKIADQFGISVDTIKWANDMKGDALSIDQELKIP”, the “soluble fraction (log2)” value came out at 0.057.

Take “HMPRDQQENIYLLEKGKRLYEEHLGDQRQIIGHRIMIFERILESQDHAQIRRAQSEFAEFLSHYDG”: the “soluble fraction (log2)” value is -0.229.

Consider “HMGNFGDLLKILLDEKELSMGELSKKSGIDKSTISRIANNKQKPNINHLEKMAIHLNINLEELLKASGYEF”, for which the “soluble fraction (log2)” value is -0.364.

As to “HMNKYQFESKIHIYRATKRMTQQELADLVGVSRQTIMQLERNRYNPSMMLAYGIAKVFDVTIEDLFDFSEV”, the “soluble fraction (log2)” value is -2.05.

In the case of “HMAFEITSAERTRLEDIARKGLTAYTAEWKQLPASEKKALNKTGLQDFLKSMAADADSAREEEA”, the “soluble fraction (log2)” value amounted to 0.0772.

Regarding “HMYRLSPSWRIVERDDGFEIYGGDDARFQLDPSPLVSRLAAGDAVTRDGLDPTGAIEFEQLLSAGMIRPEI”, the “soluble fraction (log2)” value is -0.124.

As to “HMTKEEREKREKYEKLMKKAEELTAAKNHREVINVLGQAKAYATAAQLKEIEEKIKAATSEMNK”, the “soluble fraction (log2)” value was 0.136.

As to “HMGEENLKYPLLTDGSVKTTVLEAIDKDEKWLREELAKQGYDDLSKLFLVDYLGGQLVVTPY”, the “soluble fraction (log2)” value turned out to be 0.277.

Turning to “HMSLIEQKSQIPLVQGGQRVDKVAAALFTDFSRAELTGWIQQGALTLDGAVVKPKYKVLGGEWLYLRASQS”, the “soluble fraction (log2)” value was -2.02.

In the case of “HMTDLDDFAARLKTLTDGRASTPRLRDGVMMLSLDVGGLGPDQRDGLIAAIREGGLTVPGVSDVRIVMT”, the “soluble fraction (log2)” value is 0.0757.

Take “HMLLKIRPDLDGNEIMKLLNIAAGPNVGKAYEHLLELRLEHGPLGKERAEQELMNWWSARSQ”: the “soluble fraction (log2)” value was -1.09.

Turning to “HMIVVLKHGVTEQQMRNLIAWFKDQGVDVHVSRGIYQTVLGLVGDTSDIDVDLLRMLDIVDAVKRIT”, the “soluble fraction (log2)” value is -1.76.

With “HMNRNHVFDSNGPDLRLRGTAQQLFEKYLQLGRDATSGGDRVMAEGYFQHAEHYFRILNAMNQAAMQH”, the “soluble fraction (log2)” value is -0.68.

With “HMDAIDQDGNHMTFKRWGEQLQEAFQALEAYDTDKAKTILNELIKFPIDSDLNNALKGILSNIDEMMA”, the “soluble fraction (log2)” value was -0.447.

In the case of “HMLVSFGDHLKRYIYERAGIEEPFGEVPQEIYRDIAVDSFRETYTPKSMNPTSTKLPALVNNWLIQ”, the “soluble fraction (log2)” value was -0.746.

“HMLETHRRRQIILSLLRESGMLDVDEVAARLVVSPNTIRNDFNALAAEGLLRRIRGGATLAEP”: the “soluble fraction (log2)” value is -0.349.

In the case of “HMDTIAEFIAELTPLEQKVFHVYYEKGQSLKDTAQQAEITSTSARGALDRIRAKGRHFHLAVILFIG”, the “soluble fraction (log2)” value was -0.622.

“HMENINIRNMGIRAVEAAIISLSPDQRTFTWGATNKKLVTVPYEENPYSALAAFFKTDDGIEIYDAIEKRL”: the “soluble fraction (log2)” value was -0.892.

Consider “HMSEATTVNYKYAVTISDLRIRKGPGTNYGSVGYTGKGVFTIVAEKGGWGKLKSGAGWISLNSKYGHKVS”, for which the “soluble fraction (log2)” value was -1.45.

For “HMLMKKTITHEIELLEFLKQIFPQSSTNKLRKMLSNGRIKINSEIVHKAKYKLQENDTFELLDNPT”, the “soluble fraction (log2)” value is -0.488.

As for “HMTGLSFEEKDLLGNALKLLDETERRIVILHATSGLKHREIAKQLDIPLPTVLSKYTRAIKKLKKHME”, the “soluble fraction (log2)” value was -0.0942.

With “HMRNMRKLWIARINAAARMNDISYSKLMHGLKLANVEINRKMLSEMAIDDPKSFTALVETAKKALNG”, the “soluble fraction (log2)” value is -0.894.

For the sequence “HMSRLLERARDLMAKPGAWLSAEGGAYALRLSPDRRSRISLTLTETEFRALIDQPGLRVRPGGGWSGRA”, the “soluble fraction (log2)” value was -3.

Take “HMFGQRLRLARKRAGLSMQALAQRMSPPVTAQAISKYEADRMMPSSAVLVGLGKALGVSLDFLMGGQ”: the “soluble fraction (log2)” value was -0.835.

With “HMNKEIEDYVATYSSMKAKEAAAIFDTMTSDLDLVAKILEAMSADDRAKILEQMNEENAARLTKMMD”, the “soluble fraction (log2)” value was 0.21.

In the case of “HMDDLIIQIELKQEGLEITGLKVLLKEDSVIDEQVKQTIRRKIERFLVNLYGNPNVYVSKFSMGI”, the “soluble fraction (log2)” value is -0.325.

Regarding “HMSYFNEYEVGDTIRVVNGPLADQISTITAIDKEKGLVNISTVFFGRENNVQVSINDIEKYN”, the “soluble fraction (log2)” value was 0.0466.

Take “HMTVSRRYTENEMETALKAYLATHNFISRRDMQQEFALTIYSARKWLNHFVDVGLIERIGLKNAPIYKL”: the “soluble fraction (log2)” value was -0.4.

For “HMSQYELEDVEKQRLKFKNGDEKALWLLSDIYKDNSQSYEVRLAALRALSESRHPLIIFDIQSSVK”, the “soluble fraction (log2)” value was -0.208.

On to “HMDDATDLPYQEFRTQVSDGQVKIAQFNNNTGKITFESISGDKFKTSGPLELSSDDERLFLENIEDFKFFT”, for which the “soluble fraction (log2)” value is 0.104.

Turning to “HMADTSPEGVQKLIKAFEQFGVSKDDIEGFIQRRVDAITPANVVSLRKIFTSLRDGMSSAKDWFKGA”, the “soluble fraction (log2)” value was found to be 0.00107.

On to “HMAGPTIVTNSQGVPNYHLVKRGDTVSQIAQRYGLNYRQIGAINNLDSKYTIYSGQWLKLWQG”, for which the “soluble fraction (log2)” value is -0.702.

As for “HMVQIFIPVVHDDHWFLIVFSREEDTFYVLDSLPSLSRISTINGIISTLKEHLQQASVGPQYSVKVLPVK”, the “soluble fraction (log2)” value is -0.172.

For “HMGIPVSIGQLDFNQARGNLALQVRASDFAALEQLRQRLGQTGESVQLGSASRDGDAVSARVVIGGQ”, the “soluble fraction (log2)” value is -0.015.

Regarding “HMDGLDFIINENGKIANINEEGELLAKGENIMLGYYKDSISTNNTINNGWLHTGDIAKIDNDGFIYL”, the “soluble fraction (log2)” value came out at 0.0618.

Regarding “HMLFYSDLVRLISFAEATLGKNEFETWYMSHHQGMKYTEIAIALGISVRTVEDRIARTKNHFRKI”, the “soluble fraction (log2)” value was -0.494.

As for “HMKKTITISNYINVRDFATMSELPVNSILSVLMKNGIFVSLNEKIDFDTAWLVGSELGLEVKQKQG”, the “soluble fraction (log2)” value is -0.214.

As for “HMDLRYKVQYNFIDQGMMTKDELLKFSLNQDDVSKIAVFDNDSKQWKEIYAITEISEKLGIS”, the “soluble fraction (log2)” value is -0.0611.

As to “HMHVVVIDKQGALSYQGKAITLLDLKNIVIDVPKETPFLIKADKDIHLQSFVEVLDLIKTAGFKKVSLQ”, the “soluble fraction (log2)” value is -0.182.

As for “HMSILDEAEFKKIESALLDFITNNIFTVKELLQASRGIKQDKFWKVFQFLQSERKVVVNELGYIEL”, the “soluble fraction (log2)” value was -0.205.

Turning to “HMKEQLEAYVNRLFADAALTIRNAEVRQEILQHALDRYDDLIASGKTEQEAYDETVSGIGDVSGLYEHK”, the “soluble fraction (log2)” value was -0.195.

Turning to “HMITLYDLLGVSKTASSQEIKTAFKKKALQYHPDKNDGNPDKEEIFKRINMAYQVLGQPQSRANYDFSITP”, the “soluble fraction (log2)” value was -0.321.

On to “HMKLTESQLHKFTNDAVLAHIRNLIEFKGAFTEDDIEPIIRDRAAVYGIDLEDEDYKKVKTDVEYHFK”, for which the “soluble fraction (log2)” value is -0.000214.

With “HMSKNVTMPNLVGYSMRQAKAELLSRGLHLGKLIYVNDIATNNVISQLYRNAEIEPGVKIESESYVDLVVG”, the “soluble fraction (log2)” value was -1.45.

On to “HMNIDKLVGSTGTVVRSVTPDTAGLVRVNDEDWRASAEEILYERDAIVVEGIEGVTLIVSKLS”, for which the “soluble fraction (log2)” value is -0.43.

For “HMDEPVDRLSPREQEVLALMAEGRSNAAIAHRLSITEKAVAKHINSIFTKLDLPLDEDDHRRVRAVLAWLR”, the “soluble fraction (log2)” value is -0.274.

Consider “HMSRLGINTTIEDIKMVGKIIMPLLKQGQSVYQILASHPEIPYSEKTLYSYIEDNIFKDAGIDISVFDL”, for which the “soluble fraction (log2)” value is -0.931.

For the sequence “HMKSNKEKIYDFIQMHDTAEKEGGVSTTYIAQALSLQRTNVSSLLNALVEEGRIHKSNGRPVLYSIAG”, the “soluble fraction (log2)” value came out at 0.0955.

Take “HMLEPGIAVLKTLMSQYRLGVADLPELGSKSNVSKLLNAVEGKKLTRQHIEALSKRFAVSPALF”: the “soluble fraction (log2)” value was -0.195.

Regarding “HMTGTVKVNSLNVYKSASLDSEVKDTLVLNTKVTIAENGQVTDGIYVWGRLQSGEGYVQMNNLTL”, the “soluble fraction (log2)” value is -0.687.

With “HMEDAWMKKELWDAIATLPKKQRLVMTMRLTNNHSYKEIAAILGISENSAKVSYHHAVERLKEKFK”, the “soluble fraction (log2)” value is -1.33.

Consider “HMEEQQIQLIQMKMEKDHKYVGKKISELRIKNMLIVLIKRGDEDIIPRAEVKIKEGDILVLSAQSYEG”, for which the “soluble fraction (log2)” value was -0.00468.

For the sequence “HMDSMATVPDLVGKTEDEAKALANDAHLGVQMAGEEASDQEKGKISRQETAAGTQVAEYTTVKYWVSTGTQ”, the “soluble fraction (log2)” value stood at 0.124.

For the sequence “HMRITEGEIVEIQEGDNRALVGVGEKLEGIISLDEIRGADGKLLFNVGDKITVMVMGHYNERPK”, the “soluble fraction (log2)” value amounted to 0.15.

“HMTYYEGYYRKNQKGFGFVIVDGRDEDIYIDAKNMNGALNNDLVVVEELKGQNGKKTEGRVVKVLKKE”: the “soluble fraction (log2)” value was -0.185.

As for “HMKDYTIDDIINSKVEHPLGGYQSRFKVGEYEVSVVGGRQTNHGDFIHTFELAIFDKNNNFLRNLTPVTID”, the “soluble fraction (log2)” value is -0.0394.

For the sequence “HMNSKYILLQVSDIPKTSLVLERQFGVTEYSVQDEHTLRIYDTSLDMAAVNKALVVQDIAVISSQL”, the “soluble fraction (log2)” value is -0.353.

For “HMKIMSLSERHQKILELLKVNGIVSVNSLSRQLNVSSVTIRKDLGLLEEKKLLYRSHGGAIQID”, the “soluble fraction (log2)” value is -3.08.

For the sequence “HMTKLLITNYERNVLINSYLLKNTPELDDIRRLLVHNKHISENDVSTEMARRIKKHKADWLRVT”, the “soluble fraction (log2)” value was -2.71.

“HMEELVGFEEKVRSILTSPLSAKEIKEKTHIEIDTRKLSKMLSELSFIKTEKKNGKKIFRLVS”: the “soluble fraction (log2)” value was -0.284.

On to “HMRGDQLREHLLWTAKDVFLELGFERASMDAVAARAETSKRSLYAHFESKEKLFLAVIDLVRG”, for which the “soluble fraction (log2)” value is -3.67.

Regarding “HMSAEKPVKSELFYKSMLNSFEQAVRFMIANGILEDFKSRIVAINNETNHQNWFNKQEFNAIIERF”, the “soluble fraction (log2)” value was -0.449.

“HMNAVDLLSPQEQRIFELIGEGMSNRQIADVMYLAEKTVKNYVSNVLMKLGMERRTEAAALAARLDERQK”: the “soluble fraction (log2)” value is -0.114.

For the sequence “HMQMSDTAAIGKIVDEVFAENPAALEDYAKGKTNVVDWLTGQVMKKSRGQANPGIASELVQKRLADF”, the “soluble fraction (log2)” value came to 0.122.
